Source: article PMC11229320, “Dynamics of the Herpes simplex virus DNA polymerase holoenzyme during DNA synthesis and proof-reading revealed by Cryo-EM”

What was measured:
[1] = molecular target: T1, UL30 DNA polymerase catalytic subunit;UL42 processivity factor (Herpes simplex virus 1 (HHV-1);Herpes …, UniProt P04293;P10226 1-1235;1-488, |); assay: cryo-EM; DNA editing (exonuclease) state; also 8OJB, 8OJC (active site classes), 8OJD (beta-hairpin loop); Cryo-EM complex buffer not given in material; protein purified in 20 mM HEPES pH 7.8, 400 mM NaCl, 1.5 mM MgCl2, 1 mM DTT, 5% glycerol; settings: protein: recombinant;recombinant; copies: 1;1; 5' overhang 21 nt on template; 2 mismatches (A/G) at primer 3' end
T1 sequence (P04293 whole entry, chain 1 of 2): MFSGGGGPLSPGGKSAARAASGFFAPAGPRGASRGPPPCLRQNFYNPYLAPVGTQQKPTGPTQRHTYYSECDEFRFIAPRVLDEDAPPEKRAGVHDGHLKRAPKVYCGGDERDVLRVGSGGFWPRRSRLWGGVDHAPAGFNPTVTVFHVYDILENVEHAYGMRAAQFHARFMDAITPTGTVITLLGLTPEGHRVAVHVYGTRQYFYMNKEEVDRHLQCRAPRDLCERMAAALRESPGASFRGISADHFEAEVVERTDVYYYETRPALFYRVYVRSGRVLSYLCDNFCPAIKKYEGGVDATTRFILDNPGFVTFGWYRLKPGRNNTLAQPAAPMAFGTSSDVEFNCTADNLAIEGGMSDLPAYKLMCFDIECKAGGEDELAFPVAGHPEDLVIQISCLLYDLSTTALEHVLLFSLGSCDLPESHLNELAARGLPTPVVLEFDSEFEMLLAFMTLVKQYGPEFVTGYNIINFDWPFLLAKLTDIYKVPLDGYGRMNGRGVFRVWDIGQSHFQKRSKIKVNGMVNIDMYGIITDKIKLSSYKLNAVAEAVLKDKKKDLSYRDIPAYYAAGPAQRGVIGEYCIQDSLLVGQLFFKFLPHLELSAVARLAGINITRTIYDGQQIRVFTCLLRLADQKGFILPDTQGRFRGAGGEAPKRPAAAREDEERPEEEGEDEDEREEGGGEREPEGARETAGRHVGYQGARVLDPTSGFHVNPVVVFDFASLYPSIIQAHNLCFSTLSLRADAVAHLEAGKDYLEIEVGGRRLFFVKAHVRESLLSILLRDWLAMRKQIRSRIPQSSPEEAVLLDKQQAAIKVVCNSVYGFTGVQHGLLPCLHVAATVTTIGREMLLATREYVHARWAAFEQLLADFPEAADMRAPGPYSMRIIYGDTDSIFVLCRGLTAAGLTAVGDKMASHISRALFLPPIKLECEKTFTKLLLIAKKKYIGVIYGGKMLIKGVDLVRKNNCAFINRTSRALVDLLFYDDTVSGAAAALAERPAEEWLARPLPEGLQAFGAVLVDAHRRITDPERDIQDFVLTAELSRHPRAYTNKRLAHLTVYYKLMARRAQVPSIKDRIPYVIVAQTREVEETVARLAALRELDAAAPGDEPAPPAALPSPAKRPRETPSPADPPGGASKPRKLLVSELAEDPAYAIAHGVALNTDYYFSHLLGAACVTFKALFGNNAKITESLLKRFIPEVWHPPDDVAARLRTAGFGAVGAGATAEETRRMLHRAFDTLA
T1 sequence (P10226 whole entry, chain 2 of 2): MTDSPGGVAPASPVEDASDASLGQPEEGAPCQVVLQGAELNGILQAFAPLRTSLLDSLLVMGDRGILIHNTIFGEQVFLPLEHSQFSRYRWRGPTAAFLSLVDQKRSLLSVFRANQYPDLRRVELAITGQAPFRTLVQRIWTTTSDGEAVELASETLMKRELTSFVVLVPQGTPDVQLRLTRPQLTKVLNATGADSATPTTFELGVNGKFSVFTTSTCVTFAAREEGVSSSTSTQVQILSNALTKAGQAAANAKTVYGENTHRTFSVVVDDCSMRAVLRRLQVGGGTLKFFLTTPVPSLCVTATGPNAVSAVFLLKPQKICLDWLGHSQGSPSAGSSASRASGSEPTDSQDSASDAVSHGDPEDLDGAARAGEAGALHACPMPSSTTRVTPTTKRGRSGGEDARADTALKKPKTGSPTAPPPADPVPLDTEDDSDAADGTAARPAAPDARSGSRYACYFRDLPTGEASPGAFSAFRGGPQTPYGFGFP

[2] = molecular target: T1, UL30 DNA polymerase catalytic …; assay: cryo-EM; halted elongation state, dATP in dNTP pocket; 1 mM dATP/dGTP/dTTP/ddCTP mix; Cryo-EM complex buffer not given in material; protein purified in 20 mM HEPES pH 7.8, 400 mM NaCl, 1.5 mM MgCl2, 1 mM DTT, 5% glycerol; settings: protein: recombinant;recombinant; copies: 1;1; 5' overhang 14 nt on template after extension (22 nt before)
[3] = molecular target: T1, UL30 DNA polymerase catalytic …; assay: cryo-EM; DNA editing (exonuclease) state; also 9ENQ (active site); Cryo-EM complex buffer not given in material; protein purified in 20 mM HEPES pH 7.8, 400 mM NaCl, 1.5 mM MgCl2, 1 mM DTT, 5% glycerol; settings: protein: recombinant;recombinant; copies: 1;1; 5' overhang 21 nt on template; 1 mismatch (A/G) at primer 3' end
[4] = molecular target: T1, UL30 DNA polymerase catalytic …; assay: cryo-EM; pre-translocation state, open fingers; 2.4 A; Cryo-EM complex buffer not given in material; protein purified in 20 mM HEPES pH 7.8, 400 mM NaCl, 1.5 mM MgCl2, 1 mM DTT, 5% glycerol; settings: protein: recombinant;recombinant; copies: 1;1; 5' overhang 26 nt on template (22 bp)

B1: 2-bp mismatch exonuclease primer-template (dsDNA)
DNA 1: ATTTGCTGACCTTTGTTCTGGGGTGAGTTGGTTGGACGGCTGCGAGGCGATCAAGGTGTCGTAGTGGC
DNA 2: GCCACTACGACACCTTGATCGCCTCGCAGCCGTCCAACCAACTCAAA
modifications: * before each of the last two A of primer (phosphorothioate?; not defined in material)
binding result [1]: binds

B2: halted elongation primer-template (ddC-terminated) (dsDNA)
DNA 1: ATTTGCTGACCTTTGTTCTAATTGAGTTGGTTGGACGGCTGCGAGGCGATCAAGGTGTCGTAGTGGC
DNA 2: GCCACTACGACACCTTGATCGCCTCGCAGCCGTCCAACCAACTCAATTAGAAC
modifications: 3'-terminal ddC on primer, added in situ: printed primer S5 extended with dATP, dGTP, dTTP, ddCTP to first template G
binding result [2]: binds

B3: 1-bp mismatch exonuclease primer-template (dsDNA)
DNA 1: ATTTGCTGACCTTTGTTCTGGGTGAGTTGGTTGGACGGCTGCGAGGCGATCAAGGTGTCGTAGTGGC
DNA 2: GCCACTACGACACCTTGATCGCCTCGCAGCCGTCCAACCAACTCAA
modifications: * before each of the last two A of primer (phosphorothioate?; not defined in material)
binding result [3]: binds

B4: pre-translocation primer-template (dsDNA)
DNA 1: CGAAAGTACGTTATTGCGACTGGCCGTCGCTCTACAACGTCGTGACTG
DNA 2: CAGTCACGACGTTGTAGAGCGA
binding result [4]: binds
